# Data published in article PMC5328894, “Characterization of a Bacillus thuringiensis chitinase that binds to cellulose and chitin” (AMB Express, 2017).
# Substrate: CC(=O)N[C@H]1[C@H](Oc2ccc([N+](=O)[O-])cc2)O[C@H](CO)[C@@H](O[C@@H]2O[C@H](CO)[C@@H](O)[C@H](O)[C@H]2NC(C)=O)[C@@H]1O
# Test: initial-rate hydrolysis, Michaelis-Menten fit
# Format: biochemical, Bacillus thuringiensis
# Conditions: 50 mM MES-NaOH, pH 6.0, 50 °C, 0.05-0.8 mM substrate
# Text: initial-rate hydrolysis, Michaelis-Menten fit on BthChi74
protein,measurement,value
"BthChi74 (Bacillus thuringiensis serovar israelensis ATCC 35646) (protein, GH18 catalytic domain + FNIII + CBM2; pET21d(+), E. coli BL21(DE3); vector-derived additions at N- and C-termini, C-terminal His6 designed but probably lost by processing; expected 76 kDa, 74 kDa on SDS-PAGE) MAMRSQKFTLLLLSLLLFLPLFLTNFITPNLALADSPKQSQKIVGYFPSWGVYGRNYQVADIDASKLTHLNYAFADICWKGKHGNPSTHPDNPNKQTWNCKESGVPLQNKEVPNGTLVLGEPWADVTKSYPGSGTTWEDCDKYARCGNFGELKRLKAKYPHLKTIISVGGWTWSNRFSDMAADEKTRKVFAESTVAFLRAYGFDGVDLDWEYPGVETIPGGSYRPEDKQNFTLLLQDVRNALNKAGAEDGKQYLLTIASGASQRYADHTELKKISQILDWINIMTYDFHGGWEATSNHNAALYKDPNDPAANTNFYVDGAIDVYTNEGVPVDKLVLGVPFYGRGWKSCGKENNGQYQPCKPGSDGKLASKGTWDDYSTGDTGVYDYGDLTANYVNKNGFVRYWNDTAKVPYLYNATTGTFISYDDNESMKYKTDYIKTKGLSGAMFWELSGDCRTSPKYSCSGPKLLDTLVKELLGGPINQKDTEPPTNVKNIIVTNKTSSSVQLSWTASTDNVGVTEYEITAGEEKWSATTNSITIKNLKPNTEYTFSVIAKDASGNKSHPTALTVKTDEANTTPPDGNGTATFSVTSNWGSGYNFSIIIKNNGTIPIKNWKLEFDYSGNLTQVWDSKISSKTNNHYVITNAGWNGEIPPGGSITIGGAGTGNPAELLNAVISEN",Km,159 ± 0.5 µM
same,kcat,1.5 ± 0.02 s⁻¹
same,kcat/Km,10000 M⁻¹ s⁻¹
